The values below come from the supplement of paper PMC5998384.

The test system of data set [1] is HeLa Kyoto. The data set can be described thus: solubility change mitosis vs G1/S (difference of NP-40 vs SDS log2 ratios) (log2 ratio difference); higher = more soluble in mitosis.
Data set [2] has as its system HeLa Kyoto. The data set can be described thus: thermal stability score vs G1/S (z-score of summed log2 fold changes over temperatures); higher = more thermally stable than in G1/S.
Data set [3] has as its system HeLa Kyoto. Description: melting temperature (median over replicates), in situ; higher = more thermally stable.
Data set [4] relates to HeLa Kyoto. Description: solubility in G1/S (NP-40 vs SDS abundance) (log2 ratio); higher = more soluble. As to conditions: cell cycle stage: G1/S.
Where [5] appears, read: cell cycle stage: early G1 (4.5 h after nocodazole release).
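Throughout, for melting temperature (median over replicates), in situ: HeLa Kyoto cells synchronized by double thymidine or nocodazole block, proteins quantified by TMT10plex mass spectrometry, three independent biological replicates.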
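Throughout, for solubility change mitosis vs G1/S (difference of NP-40 vs SDS log2 ratios): synchronized HeLa Kyoto cells (double thymidine block for G1/S, nocodazole release for mitosis), protein amounts in NP-40 versus SDS lysates quantified by mass spectrometry, three biological replicates.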
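Throughout, for solubility in G1/S (NP-40 vs SDS abundance): HeLa Kyoto cells arrested at G1/S by double thymidine block, proteins quantified by TMT10plex mass spectrometry in mild NP-40 versus SDS extracts, three biological replicates.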
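Throughout, for thermal stability score vs G1/S (z-score of summed log2 fold changes over temperatures): synchronized HeLa Kyoto cells, proteins quantified by TMT10plex mass spectrometry, three biological replicates, mitosis taken 0.5 h after nocodazole release, G1/S directly after double thymidine block.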

With “MPTVSVKRDLLFQALGRTYTDEEFDELCFEFGLELDEITSEKEIISKEQGNVKAAGASDVVLYKIDVPANRYDLLCLEGLVRGLQVFKERIKAPVYKRVMPDGKIQKLIITEETAKIRPFAVAAVLRNIKFTKDRYDSFIELQEKLHQNICRKRALVAIGTHDLDTLSGPFTYTAKRPSDIKFKPLNKTKEYTACELMNIYKTDNHLKHYLHIIENKPLYPVIYDSNGVVLSMPPIINGDHSRITVNTRNIFIECTGTDFTKAKIVLDIIVTMFSEYCENQFTVEAAEVVFPNGKSHTFPELAYRKEMVRADLINKKVGIRETPENLAKLLTRMYLKSEVIGDGNQIEIEIPPTRADIIHACDIVEDAAIAYGYNNIQMTLPKTYTIANQFPLNKLTELLRHDMAAAGFTEALTFALCSQEDIADKLGVDISATKAVHISNPKTAEFQVARTTLLPGLLKTIAANRKMPLPLKLFEISDIVIKDSNTDVGAKNYRHLCAVYYNKNPGFEIIHGLLDRIMQLLDVPPGEDKGGYVIKASEGPAFFPGRCAEIFARGQSVGKLGVLHPDVITKFELTMPCSSLEINVGPFL [FARSB]”, the “solubility change mitosis (log2)” value in the data set with HeLa Kyoto [1] was -0.031. Also, the thermal stability score came to 2.32 with HeLa Kyoto [2] (setting [5]) and 0.692 in the data set with HeLa Kyoto [2] (cell cycle stage: mitosis). The values for the melting temperature in the data set on HeLa Kyoto [3] (cell cycle stage: G1/S) and with HeLa Kyoto [3] (cell cycle stage: mitosis) were 50.4 °C and 50.2 °C, respectively. The “solubility in G1/S (log2)” value with HeLa Kyoto [4] came out at 0.00374.
As to “MPVAGSELPRRPLPPAAQERDAEPRPPHGELQYLGQIQHILRCGVRKDDRTGTGTLSVFGMQARYSLRDEFPLLTTKRVFWKGVLEELLWFIKGSTNAKELSSKGVKIWDANGSRDFLDSLGFSTREEGDLGPVYGFQWRHFGAEYRDMESDYSGQGVDQLQRVIDTIKTNPDDRRIIMCAWNPRDLPLMALPPCHALCQFYVVNSELSCQLYQRSGDMGLGVPFNIASYALLTYMIAHITGLKPGDFIHTLGDAHIYLNHIEPLKIQLQREPRPFPKLRILRKVEKIDDFKAEDFQIEGYNPHPTIKMEMAV [TYMS]”, the “solubility change mitosis (log2)” value in the data set on HeLa Kyoto [1] was -0.0717. Also, the thermal stability score in the data set on HeLa Kyoto [2] (setting [5]) is -0.449; in the data set on HeLa Kyoto [2] (cell cycle stage: mitosis), 1.58. Besides, the melting temperature in the data set with HeLa Kyoto [3] (cell cycle stage: G1/S) amounted to 49.2 °C; in the data set with HeLa Kyoto [3] (cell cycle stage: mitosis) it was 49 °C. Moreover, the “solubility in G1/S (log2)” value in the data set on HeLa Kyoto [4] is -0.0779.
On to “MPVDLSKWSGPLSLQEVDEQPQHPLHVTYAGAAVDELGKVLTPTQVKNRPTSISWDGLDSGKLYTLVLTDPDAPSRKDPKYREWHHFLVVNMKGNDISSGTVLSDYVGSGPPKGTGLHRYVWLVYEQDRPLKCDEPILSNRSGDHRGKFKVASFRKKYELRAPVAGTCYQAEWDDYVPKLYEQLSGK [PEBP1]”, for which the “solubility change mitosis (log2)” value with HeLa Kyoto [1] amounted to 0.21. The thermal stability score in the data set with HeLa Kyoto [2] (setting [5]) is -0.593; in the data set on HeLa Kyoto [2] (cell cycle stage: mitosis) it was -3.2. Also, the melting temperature came to 56.9 °C with HeLa Kyoto [3] (cell cycle stage: G1/S) and 57.3 °C with HeLa Kyoto [3] (cell cycle stage: mitosis). Besides, the “solubility in G1/S (log2)” value in the data set with HeLa Kyoto [4] is 0.607.
Take “MPVKGGTKCIKYLLFGFNFIFWLAGIAVLAIGLWLRFDSQTKSIFEQETNNNNSSFYTGVYILIGAGALMMLVGFLGCCGAVQESQCMLGLFFGFLLVIFAIEIAAAIWGYSHKDEVIKEVQEFYKDTYNKLKTKDEPQRETLKAIHYALNCCGLAGGVEQFISDICPKKDVLETFTVKSCPDAIKEVFDNKFHIIGAVGIGIAVVMIFGMIFSMILCCAIRRNREMV [CD9]”: the “solubility change mitosis (log2)” value with HeLa Kyoto [1] was -0.149. The thermal stability score in the data set with HeLa Kyoto [2] (setting [5]) came out at 2.82; with HeLa Kyoto [2] (cell cycle stage: mitosis), 0.357. For the same sequence, the melting temperature with HeLa Kyoto [3] (cell cycle stage: G1/S) stood at 62.4 °C; with HeLa Kyoto [3] (cell cycle stage: mitosis), 60.4 °C. Besides, in the data set with HeLa Kyoto [4], the “solubility in G1/S (log2)” value was -0.0106.
As for “MPVQLSEHPEWNESMHSLRISVGGLPVLASMTKAADPRFRPRWKVILTFFVGAAILWLLCSHRPAPGRPPTHNAHNWRLGQAPANWYNDTYPLSPPQRTPAGIRYRIAVIADLDTESRAQEENTWFSYLKKGYLTLSDSGDKVAVEWDKDHGVLESHLAEKGRGMELSDLIVFNGKLYSVDDRTGVVYQIEGSKAVPWVILSDGDGTVEKGFKAEWLAVKDERLYVGGLGKEWTTTTGDVVNENPEWVKVVGYKGSVDHENWVSNYNALRAAAGIQPPGYLIHESACWSDTLQRWFFLPRRASQERYSEKDDERKGANLLLSASPDFGDIAVSHVGAVVPTHGFSSFKFIPNTDDQIIVALKSEEDSGRVASYIMAFTLDGRFLLPETKIGSVKYEGIEFI [CANT1]”, the “solubility change mitosis (log2)” value in the data set with HeLa Kyoto [1] was -0.137. For the same sequence, the thermal stability score is -0.646 in the data set with HeLa Kyoto [2] (setting [5]) and -1.1 with HeLa Kyoto [2] (cell cycle stage: mitosis). Besides, the melting temperature came to 55.2 °C in the data set on HeLa Kyoto [3] (cell cycle stage: G1/S) and 54.6 °C with HeLa Kyoto [3] (cell cycle stage: mitosis). In addition, in the data set with HeLa Kyoto [4], the “solubility in G1/S (log2)” value was 0.0305.
